Each block holds one molecule with its values, some of them ahead of it. *1 amine or outer side, *2 acyl side, *3 side chain or, on linkers, in order; H or OH if unused. Where a SMILES comes first, the peptide text is derived from it. [ ]: non-standard residue; d: D form. 5,6‑carboxyfluorescein = CF, 5,6-carboxyfluorescein label; CF = 5,6-carboxyfluorescein, N-terminal label; pY = N[C@@H](Cc1ccc(OP(=O)(O)O)cc1)C(=O)O; Cysteamide = C(CS[*:3])N[*:1]
Legend:
[1] = target: T1, N-SH2 domain of SHP2 (Homo sapiens, UniProt Q06124); assay: Fluorescence anisotropy direct binding assay, N-SH2 domain; conditions: for standard free energy of binding: assuming a 1 M standard state
T1 construct: constructs of the N-SH2 (residues 2-111), C-SH2 (109-217) and PTP (212-528) domains; His6 (esaHis); made in house; host or cells: E. coli (DE3) Rosetta2
T1 sequence (Q06124 2-111): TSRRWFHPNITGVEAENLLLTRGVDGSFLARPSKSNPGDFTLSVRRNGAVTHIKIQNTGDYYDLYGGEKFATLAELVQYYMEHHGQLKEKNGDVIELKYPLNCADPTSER

[2] = tested on: NIH3T3 cells; assay: Peptide toxicity in the cell uptake experiments (Sytox); assay type: cell-based; conditions: Pep1 at 10 µM
Description: Cell viability in the FACS experiment was determined by using Sytox fluorescence.
Cells were incubated for different times and then washed, collected and stained with SYTOX blue (1 mM, Invitrogen™) to identify the viable population and the green fluorescence of CFP9W5 was recordered to measure peptide uptake. Data were analysed with Kaluza Analysis Software (Beckman Coulter).

[3] = target: N-SH2 domain of SHP2 (residues 2-111), recombinant (human) (UniProt Q06124); assay: fluorescence anisotropy direct binding, labelled peptide titrated with protein
[4] = target: T1, N-SH2 domain of SHP2; assay: Fluorescence anisotropy displacement assay; assay type: binding; conditions: for effect of sequence length on the binding affinity: [CF-P9]=1.0 nM, [N-SH2]= 40 nM, relative to P9
[5] = tested on: T2, P8 (LN-pY-IDLDL)
T2 sequence: LNYIDLDL

[6] = tested on: T3, BTAM peptide (PTPNS1 bisphosphotyrosyl-containing motif, with 4 N-terminal G residues)
T3 sequence: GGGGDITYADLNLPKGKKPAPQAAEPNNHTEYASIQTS

[7] = tested on: T4, P8W5 (LN-pY-IDLDW)
T4 sequence: LNYIDLDW

[8] = tested on: T5, GAB1 Y657 phosphopeptide (DKQVEpYLDLDL)
T5 sequence: DKQVEYLDLDL

[9] = tested on: T6, EGFR Y1016 phosphopeptide (VDADEpYLIPQQ)
T6 sequence: VDADEYLIPQQ

[10] = tested on: T7, p190A/RhoGAP Y1105 phosphopeptide (EEENIpYSVPHD)
T7 sequence: EEENIYSVPHD

[11] = target: T8, SHP2 PTP domain (SHP2 construct lacking the N-SH2 domain) (Homo sapiens, UniProt Q06124); assay: Malachite green phosphatase assay, dephosphorylation of phosphopeptides; assay type: biochemical; conditions: phosphopeptide 100 µM; enzyme 95 nM
T8 construct: the isolated PTP domain preceded by the C-SH2 domain (residues 105-528); His6 (esaHis); made in house; host or cells: E. coli (DE3) Rosetta2
T8 sequence (Q06124 105-528): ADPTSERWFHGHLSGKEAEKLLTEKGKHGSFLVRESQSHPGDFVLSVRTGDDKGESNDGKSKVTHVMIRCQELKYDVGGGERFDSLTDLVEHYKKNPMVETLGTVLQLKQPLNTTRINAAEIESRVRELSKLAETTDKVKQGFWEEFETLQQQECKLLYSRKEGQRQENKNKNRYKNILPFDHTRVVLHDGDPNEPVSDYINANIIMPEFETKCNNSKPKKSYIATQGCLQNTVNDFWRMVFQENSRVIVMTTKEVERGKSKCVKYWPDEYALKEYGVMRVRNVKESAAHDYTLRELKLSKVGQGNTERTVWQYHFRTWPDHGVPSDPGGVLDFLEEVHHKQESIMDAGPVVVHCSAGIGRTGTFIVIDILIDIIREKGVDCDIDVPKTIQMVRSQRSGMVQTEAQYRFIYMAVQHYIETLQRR
Description: A SHP2 construct lacking the N-SH2 domain (i.e. the first 104 residues) was used at a 95 nM concentration. Phosphopeptides were added at a 100 µM concentration and the phosphate released was measured at different times. From the linear region of the phosphate versus time curve, the variation in absorbance at 655 nm in 1 min, due to phosphate released, was calculated and plotted.
The ability of SHP2 to dephosphorylate the phosphopeptides was evaluated through a malachite green phosphatase assay (PTP assay kit 1 Millipore, MA, USA). The BTAM peptide and the following monophosphorylated peptides derived from known SHP2 substrates were used for comparison: DKQVEpYLDLDL (SEQ ID NO:6) (GAB1Y657), EEENIpYSVPHD (SEQ ID NO:7) (p190A/RhoGAPY1105), and VDADEpYLIPQQ (SEQ ID NO:8) (EGFRY1016) (Primm) [Sun et al., 2009; Ren et al., 2011]. SHP2Δ104 or PTP (2.38 pmol) were incubated with 100 µM of each phosphopeptide (total volume 25 µl) for different times. The reaction was stopped by adding 100 µl of malachite green solution. After 15 min, absorbance was read at 655 nm using a microplate reader, and compared with a phosphate standard curve to determine the release of phosphate. Data obtained in the linear region of the curve were normalized on the reaction time (1 min).

[12] = target: T9, N-SH2 domain of SHP1 (Homo sapiens, UniProt P29350); assay: SH2 domain microarray, SHP1; assay type: binding; conditions: peptide 0.5, 5.0, 50 nM
T9 construct: host or cells: E. coli
T9 sequence (P29350 4-100 limits assumed): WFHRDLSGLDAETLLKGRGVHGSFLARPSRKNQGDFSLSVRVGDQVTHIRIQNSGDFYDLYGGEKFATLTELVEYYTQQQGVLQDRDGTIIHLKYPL
Description: (§1) The microarray experiment was conducted by the Protein Array and Analysis Core at the MD Anderson Cancer Center (University of Texas, USA), as previously described [Roth 2019]. Briefly, a library of SH2 domains [Huang 2008] was expressed as GST fusion in E. coli and purified on glutathione-sepharose beads. The domains were spotted onto nitrocellulose-coated glass slides (Oncyte Avid slides, Grace Bio-Labs) using a pin arrayer [Espejo 2002]. Each domain was spotted in duplicate.

[13] = tested on: protein array of 97 human SH2 domains; assay: SH2 domain microarray; assay type: binding; conditions: peptide 0.5, 5.0, 50 nM
Description: as §1

[14] = target: C-SH2 domain of SHP2 (residues 109-217), recombinant (human) (UniProt Q06124); assay: fluorescence anisotropy direct binding
[15] = target: C-SH2 domain of SHP2 (residues 109-217), recombinant (human) (UniProt Q06124); assay: fluorescence anisotropy direct binding, labelled peptide titrated with protein
[16] = target: T10, N-SH2 domain of SHP2 (residues 2-111), recombinant (human, UniProt Q06124 2-111); assay: fluorescence anisotropy direct binding
T10 construct: range 2-111; Expressed in E. coli from pET-26b and purified on Ni-NTA
T10 sequence (looked up): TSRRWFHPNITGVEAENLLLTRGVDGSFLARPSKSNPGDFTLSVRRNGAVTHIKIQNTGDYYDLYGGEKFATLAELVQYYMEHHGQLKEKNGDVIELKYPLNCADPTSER
Description: For the binding assays, the requested peptide amount (1 nM or 0.1 nM) was diluted in buffer (HEPES 10 mM, NaCl 150 mM, EDTA 1 mM, TCEP 1 mM, fluorescence buffer henceforth) and its anisotropy signal was recorded. The peptide was then titrated with increasing protein amounts, until the anisotropy signal reached a plateau at its maximum value, or up to a protein concentration where protein aggregation and consequent light scattering affected the anisotropy values (usually above 1 µM). The measurements of CF-labeled peptides were carried out using an excitation wavelength of 470 nm and collecting the anisotropy values at an emission wavelength of 520 nm. […] For the Cy3-labeled peptides, excitation and emission wavelengths of 520 and 560 nm were used.

[17] = target: T10, N-SH2 domain of SHP2 (residues 2-111), …; assay: fluorescence anisotropy direct binding, labelled peptide titrated with protein
[18] = target: T11, N-SH2 domain of SHP1, GST fusion on the SH2 domain microarray (human, UniProt P29350 1-106); assay: SH2 domain microarray (GST fusions on nitrocellulose slides), Cy3 fluorescence
T11 construct: domain: N-SH2 domain; Array of 97 human SH2 domains; not shown: GST fusion partner
T11 sequence (looked up): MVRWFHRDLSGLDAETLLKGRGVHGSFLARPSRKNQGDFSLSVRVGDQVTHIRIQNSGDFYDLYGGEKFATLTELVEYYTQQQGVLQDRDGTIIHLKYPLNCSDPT

Molecule: CC(=O)N[C@@H](CCCCN)C(=O)N[C@@H](CCC(=O)O)C(=O)N[C@H](C(=O)N[C@@H](Cc1c[nH]c2ccccc12)C(=O)N[C@@H](Cc1c[nH]c2ccccc12)C(=O)N[C@@H](CCC(=O)O)C(=O)N[C@H](C(=O)N[C@@H](Cc1c[nH]c2ccccc12)C(=O)N[C@@H](Cc1c[nH]c2ccccc12)C(=O)N[C@H](C(=O)N[C@@H](CCC(=O)O)C(=O)N[C@@H](Cc1c[nH]c2ccccc12)C(=O)N[C@@H](CO)C(=O)N[C@@H](CCC(N)=O)C(=O)N1CCC[C@H]1C(=O)N[C@@H](CCCCN)C(=O)N[C@@H](CCCCN)C(=O)N[C@@H](CCCCN)C(=O)N[C@@H](CCCNC(=N)N)C(=O)N[C@@H](CCCCN)C(=O)N[C@H](C(=O)NCCS)C(C)C)[C@@H](C)O)[C@@H](C)O)[C@@H](C)O [Pep1, reference compound] (Ac-KETWWETWWTEWSQPKKKRKV-Cysteamide)
toxicity [2]: negligible

Molecule: CF-P9E4W5 (CF-GLN-pY-IDLEW) (peptide)
Kd [3]: 8.2 nM

Molecule: SHP2Δ104 (SHP2 construct lacking the N-SH2 domain, residues 105-528)
dephosphorylation of the phosphopeptide (malachite green phosphate release) [5]: dephosphorylation was indeed observed, although to a lower extent than for other phosphopeptides
dephosphorylation of the phosphopeptide (malachite green phosphate release) [6]: dephosphorylation was indeed observed, although to a lower extent than for other phosphopeptides
dephosphorylation of the phosphopeptide (malachite green phosphate release) [7]: dephosphorylation was indeed observed, although to a lower extent than for other phosphopeptides
dephosphorylation of the phosphopeptide (malachite green phosphate release) [8]: dephosphorylation was indeed observed, although to a lower extent than for other phosphopeptides
dephosphorylation of the phosphopeptide (malachite green phosphate release) [9]: dephosphorylation was indeed observed, although to a lower extent than for other phosphopeptides
dephosphorylation of the phosphopeptide (malachite green phosphate release) [10]: dephosphorylation was indeed observed, although to a lower extent than for other phosphopeptides

Molecule: CC[C@H](C)[C@H](NC(=O)[C@H](Cc1ccc(OP(=O)(O)O)cc1)NC(=O)[C@H](CC(N)=O)NC(=O)[C@H](CC(C)C)NC(C)=O)C(=O)N[C@@H](CC(=O)O)C(=O)N[C@@H](CC(C)C)C(=O)N[C@@H](CC(=O)O)C(=O)N[C@@H](Cc1c[nH]c2ccccc12)C(N)=O [Peptide P8W5, LN-pY-IDLDW]
dephosphorylation by SHP2 [11]: dephosphorylation was indeed observed, although to a lower extent than for other phosphopeptides

Molecule: N-pY-IDLDL (Ac-N[pY]IDLDL-NH2; SMILES CC[C@H](C)[C@H](NC(=O)[C@H](Cc1ccc(OP(=O)(O)O)cc1)NC(=O)[C@H](CC(N)=O)NC(C)=O)C(=O)N[C@@H](CC(=O)O)C(=O)N[C@@H](CC(C)C)C(=O)N[C@@H](CC(=O)O)C(=O)N[C@@H](CC(C)C)C(N)=O) [Peptide P7]
effect of sequence length on the binding affinity [4]: drastic perturbation of complex stability

Molecule: Cy3-GLN-pY-IDLDW [Cy3-P9W5]
Kd ([1]; N-SH2 domain, direct binding): 23 ± 2 nM
binding to N-SH2 domain of SHP1 [12]: negligible
binding on SH2 domain array [13]: significant binding was observed only with the N-SH2 domain of SHP2

Molecule: {CF}-GLN[pY]IDLDL-NH2 [CF-P9 (CF-GLN-pY-IDLDL), fluorescently labeled IRS-1 pY1172 peptide analog]
Kd [17]: 53 nM

The next lines start with results.

standard free energy of binding [1]: -7.07 ± 0.048 kcal/mol
affinity lower than phosphorylated peptide ([1]; unphosphorylated vs phosphorylated labeled peptide): approximately 100 times
Molecule: CF-GLN- Y-IDLDL ({5,6‑carboxyfluorescein}-GLNYIDLDL-NH2) [CF-P9Y0]

IC50 [4]: 16 ± 1 nM
Ki [4]: 9 ± 2 nM
Molecule: CC[C@H](C)[C@H](NC(=O)[C@H](Cc1ccc(OP(=O)(O)O)cc1)NC(=O)[C@H](CC(N)=O)NC(=O)[C@H](CC(C)C)NC(C)=O)C(=O)N[C@@H](CC(=O)O)C(=O)N[C@@H](CC(C)C)C(=O)N[C@@H](CC(=O)O)C(=O)N[C@@H](Cc1ccccc1)C(N)=O [Peptide P8F5, LN-pY-IDLDF] (Ac-LN[pY]IDLDF-NH2)

IC50 [4]: 11 ± 1 nM
Ki [4]: 5 ± 2 nM
Molecule: CC[C@H](C)[C@H](NC(=O)[C@H](Cc1ccc(OP(=O)(O)O)cc1)NC(=O)[C@H](CC(N)=O)NC(=O)[C@H](CC(C)C)NC(C)=O)C(=O)N[C@@H](CC(=O)O)C(=O)N[C@@H](CC(C)C)C(=O)N[C@@H](CCC(=O)O)C(=O)N[C@@H](Cc1c[nH]c2ccccc12)C(N)=O [Peptide P8E4W5, LN-pY-IDLEW] (Ac-LN[pY]IDLEW-NH2)

IC50 [4]: 47 ± 4 nM
Ki [4]: 25 ± 4 nM
effect of sequence length on the binding affinity [4]: No significant loss in affinity
Molecule: CC[C@H](C)[C@H](NC(=O)[C@H](Cc1ccc(OP(=O)(O)O)cc1)NC(=O)[C@H](CC(N)=O)NC(=O)[C@H](CC(C)C)NC(C)=O)C(=O)N[C@@H](CC(=O)O)C(=O)N[C@@H](CC(C)C)C(=O)N[C@@H](CC(=O)O)C(=O)N[C@@H](CC(C)C)C(N)=O [Peptide P8, LN-pY-IDLDL] (Ac-LN[pY]IDLDL-NH2)
dephosphorylation by SHP2 [11]: dephosphorylation was indeed observed, although to a lower extent than for other phosphopeptides

fold lower affinity than for the N-SH2 domain [14]: 1000 fold
Kd [3]: 4.6 nM
Kd [15]: 4200 nM
Molecule: CF-P9W5 (CF-GLN-pY-IDLDW) (peptide)

standard free energy of binding [1]: -9.94 ± 0.024 kcal/mol
Molecule: CF-GLN-pY-IDLDL ({5,6‑carboxyfluorescein}-GLN[pY]IDLDL-NH2) [CF-P9]

fold lower affinity than the phosphorylated peptide CF-P9 [16]: ~100 fold
Kd [17]: 6600 nM
Molecule: {CF}-GLNYIDLDL-NH2 [CF-P9Y0 (CF-GLN-Y-IDLDL), unphosphorylated analog of the labeled IRS-1 pY1172 peptide]

Kd [3]: 23 nM
B1: Cy3-P9W5 (Cy3-GLN-pY-IDLDW) (peptide)
peptide: XGLNYIDLDW
modifications: phosphotyrosine (pY) at position 4; N-terminal Cyanine 3 carboxylic acid (Cy3); C-terminal amide
binding result [18]: no binding (tested: peptide at 0.5, 5.0 and 50 nM)

— US20230192765A1, “PEPTIDES TARGETING SHP2 AND USES THEREOF” (UNIVERSITÀ DEGLI STUDI DI ROMA "TOR VERGATA", priority 2020, published 2023)
